{
  "source": "patent US20030064921A1",
  "about": "“Methods and compounds for modulating melanocortin receptor ligand binding and activity” (The Regents of the University of California, priority 1999, published 2003)",
  "key": {"[1]": {"molecular_target": "MC IR (Homo sapiens, UniProt Q01726)", "sequence (Q01726 whole entry)": "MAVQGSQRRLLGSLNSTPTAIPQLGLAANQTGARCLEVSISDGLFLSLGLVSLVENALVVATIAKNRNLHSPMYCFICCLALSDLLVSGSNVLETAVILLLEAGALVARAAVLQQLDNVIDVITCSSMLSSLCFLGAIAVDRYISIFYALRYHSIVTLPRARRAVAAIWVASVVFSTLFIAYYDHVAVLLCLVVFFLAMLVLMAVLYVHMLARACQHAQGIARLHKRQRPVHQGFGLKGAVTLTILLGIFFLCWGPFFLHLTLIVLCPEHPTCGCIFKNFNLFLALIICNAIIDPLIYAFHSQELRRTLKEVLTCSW", "assay": "Displacement of NDP-MSH at melanocortin receptor (binding)", "experimental": "(§1) Suitable binding assays are well known to those of skill in the art. In a preferred embodiment, the binding assay is a competitive assay that measures the ability of the test composition to displace/compete a reference ligand from a melanocortin receptor. In one preferred approach specific binding of ligands of this invention to cells expressing the MC-3 receptor is determined by competition experiments using labeled (e.g. ^125I-labeled) Nle^4-D-Phe^7-α-MSH (NDP-MSH), as described in Tatro et al. (1990) Cancer Res. 50: 1237-1242).\n(§2) The mini-AGRP binding was tested by examining its ability to displace NDP-MSH, a well established high affinity MCR agonist. […] Antagonist activity was then determined using a cAMP assay."}, "[2]": {"molecular_target": "MC5R (Homo sapiens, UniProt P33032)", "sequence (P33032 whole entry)": "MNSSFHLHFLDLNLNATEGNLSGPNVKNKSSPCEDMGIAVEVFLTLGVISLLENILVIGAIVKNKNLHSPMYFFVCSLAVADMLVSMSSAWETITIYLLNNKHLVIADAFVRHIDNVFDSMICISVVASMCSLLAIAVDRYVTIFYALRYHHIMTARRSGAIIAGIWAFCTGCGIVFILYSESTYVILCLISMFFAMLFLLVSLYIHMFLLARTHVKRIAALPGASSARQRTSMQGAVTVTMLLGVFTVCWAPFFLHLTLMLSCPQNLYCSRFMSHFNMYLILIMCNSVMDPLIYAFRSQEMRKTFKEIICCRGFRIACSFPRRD", "assay": "Displacement of NDP-MSH at melanocortin receptor (binding)", "experimental": "as §1, §2"}, "[3]": {"molecular_target": "T1, MC4R (Homo sapiens, UniProt P32245)", "T1 sequence (P32245 whole entry)": "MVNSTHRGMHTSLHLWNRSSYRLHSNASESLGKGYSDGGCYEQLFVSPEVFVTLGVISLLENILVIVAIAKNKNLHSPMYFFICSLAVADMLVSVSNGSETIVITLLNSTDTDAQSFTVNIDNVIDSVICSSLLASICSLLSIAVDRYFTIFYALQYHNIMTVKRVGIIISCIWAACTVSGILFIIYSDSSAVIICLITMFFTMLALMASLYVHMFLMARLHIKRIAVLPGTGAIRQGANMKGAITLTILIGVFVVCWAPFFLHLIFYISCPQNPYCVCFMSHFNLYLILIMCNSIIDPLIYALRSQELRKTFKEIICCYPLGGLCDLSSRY", "assay": "Displacement of NDP-MSH at melanocortin receptor (binding)", "experimental": "as §1, §2"}, "[4]": {"molecular_target": "T2, MC3R (Homo sapiens, UniProt P41968)", "T2 sequence (P41968 whole entry)": "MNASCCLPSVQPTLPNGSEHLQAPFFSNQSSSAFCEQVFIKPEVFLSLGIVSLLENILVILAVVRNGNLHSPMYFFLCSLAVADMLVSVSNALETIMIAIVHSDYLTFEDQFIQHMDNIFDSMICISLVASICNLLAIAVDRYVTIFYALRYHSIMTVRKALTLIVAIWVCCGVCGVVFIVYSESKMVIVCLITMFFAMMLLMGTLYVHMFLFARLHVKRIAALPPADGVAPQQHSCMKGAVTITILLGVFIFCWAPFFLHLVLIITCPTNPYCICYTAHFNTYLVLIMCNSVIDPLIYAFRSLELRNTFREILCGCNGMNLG", "assay": "Displacement of NDP-MSH at melanocortin receptor (binding)", "experimental": "as §1, §2"}, "[5]": {"molecular_target": "T1, MC4R", "assay": "cAMP assay, suppression of α-MSH stimulated cAMP production", "format": "cell-based", "text": "(§3) Preferred assays measure, directly, or indirectly, melanocortin receptor induced changes in intracellular cAMP concentrations. One such assay measures the ability of cAMP to displace (8-^3H) cAMP from a high affinity cAMP binding protein (see Gilman (1979) Proc. Natl. Acad. Sci., USA, 67: 305-312). Briefly, test cells are exposed to the ligands to be screened. Following treatment, the cells are washed twice with phosphate buffered saline and intracellular cAMP extracted by lysing the cells with 1 mL of 60% ethanol. The assay is then run as described by Gilman, supra.).\nas §2"}, "[6]": {"molecular_target": "T2, MC3R", "assay": "cAMP assay, suppression of α-MSH stimulated cAMP production", "format": "cell-based", "text": "as §3, §2"}, "[7]": {"molecular_target": "T3, human MC4r (Homo sapiens, UniProt P32245)", "T3 construct": "expressed in transfected cells; host or cells: HEK-293", "T3 sequence (P32245 whole entry)": "as the sequence (P32245 whole entry) above", "assay": "Inhibition of NDP-MSH stimulated cAMP generation in HEK-293 cells transfected with human MC4r", "format": "cell-based", "conditions": "5.0×10^−6 M", "experimental": "Control experiments were performed with no MARP. […] Additional samples for HX experiments were prepared by lyophilization of protonated samples followed by reconstitution in 700 μl D2O.\nThis experiment measured inhibition of NDP-MSH stimulated cAMP generation in cells transfected with MC4r. A control experiment was conducted with no MARP present."}, "[8]": {"molecular_target": "T4, human melanocortin receptor 4 (human, UniProt P32245 1-332)", "T4 construct": "whole, on cells; also called MC4r; MC4R", "T4 sequence (P32245 whole entry)": "as above", "assay": "displacement of NDP-MSH from the receptor"}, "[9]": {"molecular_target": "T2, MC3R", "conditions": "versus agouti; cited from earlier work"}, "[10]": {"molecular_target": "T1, MC4R", "conditions": "versus agouti; cited from earlier work"}},
  "note": "Where no end group is shown, it is not given here.",
  "data": [
    {"molecule": "Ac-CVRLHESCLGQQVPCCDPAATCYCRFFNAFCYCR-NH2 (disulfide (positions not given here); not fully specified (bridges); printed as Ac-CVRLHESCLGQQVPCCDPAATCYCRFFNAFCYCR-NH2) [mini-AGRP]", "values": [
      {"measurement": "displacement of NDP-MSH, potency compared with AGRP(87-132)", "setting": "[1]", "value": "potency equivalent to that of AGRP(87-132)"},
      {"measurement": "displacement of NDP-MSH, potency compared with AGRP(87-132)", "setting": "[2]", "value": "potency equivalent to that of AGRP(87-132)"},
      {"measurement": "displacement of NDP-MSH, potency compared with AGRP(87-132)", "setting": "[3]", "value": "potency equivalent to that of AGRP(87-132)"},
      {"measurement": "displacement of NDP-MSH, potency compared with AGRP(87-132)", "setting": "[4]", "value": "potency equivalent to that of AGRP(87-132)"},
      {"measurement": "antagonist activity: suppression of α-MSH stimulated cAMP production", "setting": "[5]", "value": "potent activity"},
      {"measurement": "antagonist activity: suppression of α-MSH stimulated cAMP production", "setting": "[6]", "value": "potent activity"}
    ]},
    {"molecule": "MARP with Arg-25 to Ala substitution: MARP single mutant with Arg-25 replaced by Ala in the active loop, chemically synthesized (Ac-CVRLHESCLGQQVPCCDPCATCYCAFFNAFCYCRKLGTAMNPCSRT; disulfide (positions not given here))", "values": [
      {"measurement": "inhibition of NDP-MSH stimulated cAMP generation", "setting": "[7]", "value": "complete loss of inhibitory activity"}
    ]},
    {"molecule": "Ac-CVRLHESCLGQQVPCCDPAATCYCRFFNAFCYCR-NH2 (disulfide (positions not given here); not fully specified (bridges); printed as Ac-CVRLHESCLGQQVPCCDPAATCYCRFFNAFCYCR-NH2; also: four disulfide bonds, pairing not given here, Fmoc solid-phase synthesis, folded under oxidizing conditions)", "note": "[mini-AGRP Ac-CVRLHESCLGQQVPCCDPAATCYCRFFNAFCYCR-NH2]", "values": [
      {"measurement": "binding result", "setting": "[8]", "value": "binds"}
    ]},
    {"molecule": "AGRP: human AGRP is a 132 residue polypeptide (SEQ ID NO:1), natural antagonist of melanocortin receptors 3 and 4 (protein, listed as Homo sapiens) MLTAAVLSCALLLALPATRGAQMGLAPMEGIRRPDQALLPELPGLGLRAPLKKTTAEQAEEDLLQEAQALAEVLDLQDREPRSSRRCVRLHESCLGQQVPCCDPCATCYCRFFNAFCYCRKLGTAMNPCSRT", "values": [
      {"measurement": "binding affinity greater than agouti", "setting": "[9]", "value": "approximately 100 fold"},
      {"measurement": "binding affinity greater than agouti", "setting": "[10]", "value": "approximately 100 fold"}
    ]}
  ]
}
